Results on 97 sequences are retold here after the supplement of paper PMC6755084.

For the data set, the system named is F1*sub RNA substrate (template-directed ligation). Kind of data set: fraction ligated after 30 min (ligated reads / total reads); higher = more ligase activity; sequences stand for … in GAGACCGCAACTGAAAAGTTGT…AGTTCTGCACGTAGAAGCAAAAGGC
The note with it: 42 °C. In outline:
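Oligo-pool templates of ligase ribozyme variants were PCR-amplified, T7-transcribed and gel-purified. Ligated and unligated bands were gel-separated, reverse transcribed with barcoded primers, and MiSeq-sequenced; core bases were filtered at quality ≥20. Fraction ligated per variant was ligated reads over total reads.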
“TATCACTTGTCTAAGACACTTGGAGGGTTGA [3d1881]” came in with a fraction ligated of 0.0594.
With ATCACTTGTCTAAGCACTTTGGATGGGTTGA [3d174], the fraction ligated is 0.733.
Sequence “TATCACTTGTCGTAAGACACTTTGTGGGTTG [3d2263]” returned a fraction ligated of 0.00738.
Turning to “TATCACTTGCAAGACACTTTGGATGGGTTGA [3d1599]”, the fraction ligated came out at 0.798.
TACACTTGTGTAGACACTTTGGATGGGTTGA [3d619] had a fraction ligated of 0.0703.
Take ATCACTTGTCGAAGACACTTTGGATGGTTGA [3d195]: the fraction ligated came out at 0.714.
As for “TATCACTGTGTAAGAACTTTGGATGGGTTGA [3d1348]”, the fraction ligated was 0.882.
Regarding “TATCACTTGTCGTAGACATTTGGATGGGTTA [3d2033]”, the fraction ligated is 0.799.
The result for “TATCACTTGCGTAAACACTTTGGTGGGTTGA [3d1644]” reads 0.0539.
The result for “TATCCTTGTCGTAAGACACTTTGATGGTTGA [3d1107]” reads 0.054; that for TCACTGTCGTAAGACACTTTGGATGGGTTGA [3d5], 0.621; that for TATACTTGTCGTAAGACACTTTGGTGGTTGA [3d939], 0.00845.
Turning to “TATCACTTGTCTAAGACACTTTGGATGGTTA [3d1898]”, the fraction ligated was 0.372.
The sequence “TATCACTTGTCTAAACACTTTGATGGGTTGA [3d1840]” returned a fraction ligated of 0.753.
Sequence ATCCTTGTCGTAAGCACTTTGGATGGGTTGA [3d75] yielded a fraction ligated of 0.715.
Consider “TATCACTTGCGTAAGACACTTTGATGGGTTA [3d1692]”, for which the fraction ligated is 0.138.
“TATCACTTGTCGTAGCACTTTGATGGGTTGA [3d2007]”: the fraction ligated was found to be 0.761.
In turn, TTCACTTGTCGTAAGACATTTGGAGGGTTGA [3d480] returned a fraction ligated of 0.0169.
Take “TATCACTTTCTAAGACACTTGGATGGGTTGA [3d1486]”: the fraction ligated came out at 0.767.
TATACTTTCGTAAGACACTTTGGATGGGTTA [3d810] showed a fraction ligated of 0.00702.
Next, ATCACTTGTCGAAGACATTTGGATGGGTTGA [3d190]: 0.762.
The result for “TATCACTTGTCGTAGACACTTTGGATGGTTA [3d2055]” reads 0.406; that for “TATCACTTGCTAAACACTTTGGATGGGTTGA [3d1601]”, 0.777.
TTCATTGTCGTAAGACACTTGGATGGGTTGA [3d329] displayed a fraction ligated of 0.453.
“TATCACTTGTCTAAGAACTTGGATGGGTTGA [3d1857]” returned a fraction ligated of 0.771.
The result for TTACTTGTCGTAAGACACTTTGGATGGTTGA [3d295] reads 0.323; that for “TATCACTTGTCTAAACACTTTGGATGGTTGA [3d1843]”, 0.288; that for “TATCACTTGTCGAAGACATTTGGAGGGTTGA [3d1953]”, 0.021.
The result for “TATCACTTGTCGTAAGAACTTTGGATGGGTTA [2d260]” reads 0.799; that for “TATCATGTCGTAAGACACTTTGGATGGGTTA [3d1138]”, 0.641.
Next, “TATCATTGTCGTAAGACACTTTGTGGGTTGA [3d1277]”: 0.0371.
With TACACTTGTCGTAGACACTTTGGATGGGTTG [3d671], the fraction ligated stood at 0.514.
In turn, “TATCATTGTCGTAAGACACTTTGGATGGGTTG [2d127]” showed a fraction ligated of 0.784.
The result for ATCACTTGTCGTAAGCACTTTGGATGGTTGA [3d228] reads 0.195; that for “TATCACTTGTGAAGACACTTTGGTGGGTTGA [3d1726]”, 0.102.
Sequence “TATCACTTGTCGTAAGAACTTTGGAGGTTGA [3d2176]” registered a fraction ligated of 0.0186.
In turn, TATACTGTCGTAAGACATTTGGATGGGTTGA [3d788] gave a fraction ligated of 0.756.
In turn, “TATCCTTGTCGTAAGAACTTTGATGGGTTGA [3d1077]” yielded a fraction ligated of 0.8.
Take ATACTTGCGTAAGACACTTTGGATGGGTTGA [3d50]: the fraction ligated is 0.177.
In turn, “TATCACTTGTCGTAAGACACTTTGAGGGTTG [3d2266]” showed a fraction ligated of 0.00798.
On to “TATCCTTGTCGTAAGACACTTGGTGGGTTGA [3d1099]”, for which the fraction ligated was determined as 0.265.
Regarding “TATCACTGTTAAGACACTTTGGATGGGTTGA [3d1343]”, the fraction ligated was determined as 0.828.
The result for “TATCACTTGTCTAAGACACTTTGGAGGGTTG [3d1897]” reads 0.0676; that for “TATCACTGTCGTAAGACCTTTGATGGGTTGA [3d1427]”, 0.773; that for “TATCACTGTCGTAAGCACTTTGGATGGGTTG [3d1417]”, 0.816.
“TATCACTGTCGAAGACACTTTGGAGGGTTGA [3d1381]” yielded a fraction ligated of 0.104.
ATCACTTGTCGTAGACACTTTGGATGGGTTG [3d210]: the fraction ligated was 0.782.
Regarding ATCACTTGCGTAAGACACTTGGATGGGTTGA [3d149], the fraction ligated is 0.726.
For the sequence “TATCACTTGTCGTAAGACACTTTGGAGGGTTG [2d295]”, the fraction ligated is 0.0513.
Sequence “TATCACTTGTCGTAAGAACTTTGGTGGTTGA [3d2173]” displayed a fraction ligated of 0.0396.
Take ATCCTTGTCGTAAGACCTTTGGATGGGTTGA [3d77]: the fraction ligated is 0.703.
TATACTTGTCGTAAGACACTTTGGTGGGTTGA [2d85] yielded a fraction ligated of 0.0569.
Next, TATACTTTCGTAAACACTTTGGATGGGTTGA [3d800]: 0.307; “TATCATTGTCGTAAGACATTTGGATGGGTTG [3d1268]”: 0.766.
“TATCATTGTCGTAAGACATTTGGAGGGTTGA [3d1265]” registered a fraction ligated of 0.23.
The sequence ATCACTTGTCGTAAGACATTTGGATGGGTTGA [2d17] registered a fraction ligated of 0.78.
The result for TATACTTGTCGTAAGACCTTTGGATGGTTGA [3d915] reads 0.0819; that for “TATCACTTGTCGTAAACACTTTGATGGTTGA [3d2091]”, 0.0645; that for TTCTTGTCGTAAGACACTTTGGATGGGTTGA [3d277], 0.765.
On to TACACTTGTCGTAGCACTTTGGATGGGTTGA [3d661], for which the fraction ligated worked out at 0.0075.
Regarding “TATCACTTGTCGTAAGACCTTTGGAGGGTTG [3d2202]”, the fraction ligated was determined as 0.0402.
In the case of ATCACTTGTCGTAAGACACTTTGATGGGTTA [3d264], the fraction ligated was determined as 0.0628.
In the case of TACCTTGTCGTAGACACTTTGGATGGGTTGA [3d534], the fraction ligated turned out to be 0.697.
In turn, “TATCACTTGTGTAAGACCTTTGGATGGGTTG [3d1778]” registered a fraction ligated of 0.812.
In the case of “TATCACTTGTCGTAAGCACTTTGGATGGGTTA [2d252]”, the fraction ligated came to 0.737.
The sequence TTCACTTGTCGTAAGACACTTGGATGGGTTG [3d490] had a fraction ligated of 0.288.
Next, “TATCACTTGTCGTGACACTTTGGTGGGTTGA [3d1988]”: 0.135; “TATCACTTGTCGTGAACTTTGGATGGGTTGA [3d1983]”: 0.773; TACACTTGTCGTAAGAATTTGGATGGGTTGA [3d692]: 0.123.
Take “TATCACTTTCGAAGACACTTTGGATGGTTGA [3d1503]”: the fraction ligated was 0.0707.
The sequence “TATCACTGTCGTAAGCACTTTGGAGGGTTGA [3d1414]” displayed a fraction ligated of 0.0753.
“TATCATTGTCGAAGACACTTTGGTGGGTTGA [3d1209]” displayed a fraction ligated of 0.229.
For “TATCACTTGTCGTAGAACTTGGATGGGTTGA [3d2014]”, the fraction ligated was 0.845.
ATCACTTGTCTAAGACATTTGGATGGGTTGA [3d177] gave a fraction ligated of 0.756.
“TATCACTTGTCGTAAGAACTTTGGAGGGTTGA [2d258]”: the fraction ligated stood at 0.0583.
Turning to ATCCTTGTCGTAAGACACTTTGGAGGGTTGA [3d82], the fraction ligated stood at 0.1.
“TATCACTTGTCGTAAGAATTTGGAGGGTTGA [3d2155]” yielded a fraction ligated of 0.0724.
“TATCCTTGTCGTAAGACACTTTGTGGGTTGA [3d1105]”: the fraction ligated worked out at 0.0549.
Next, “TATCATGTCGTAAACACTTTGGATGGGTTGA [3d1128]”: 0.765; ATCACTTGCGTAAGACACTTTGGATGGGTTG [3d155]: 0.805; ATCACTTGTCGTAAGCACTTTGGATGGGTTG [3d230]: 0.731.
Regarding “TATCACTTGTCGTAAGCACTTGGTGGGTTGA [3d2130]”, the fraction ligated amounted to 0.0887.
Next, “TATCACTTGTGTAAGACACTTTATGGGTTGA [3d1793]”: 0.0875; “TATCACTTGTCTAAGACACTTTGATGGTTGA [3d1888]”: 0.0589.
“TATCATTGTGTAAGACCTTTGGATGGGTTGA [3d1178]” displayed a fraction ligated of 0.875.
With “TATCACTTGTGAAACACTTTGGATGGGTTGA [3d1719]”, the fraction ligated was 0.842.
Next, “TATCATTGTCGTAAGCCTTTGGATGGGTTGA [3d1238]”: 0.798; “TATCACTTGTCGTAAGACACTTTGGAGGTTA [3d2277]”: 0.0104.
For TATCCTTTCTAAGACACTTTGGATGGGTTGA [3d969], the fraction ligated amounted to 0.796.
The result for “TATCACTGTCGTAAGACACTTTGATGGGTTA [3d1451]” reads 0.351; that for TTCACTTGTCGTAAGACACTTTGGAGGGTTA [3d502], 0.0179.
“TATCACTTGTTAAGACACTTTGGATGGGTTGA [2d179]” yielded a fraction ligated of 0.859.
The result for TACATTTCGTAAGACACTTTGGATGGGTTGA [3d548] reads 0.0271; that for TATACTTGTCGTAAGACACTTGGATGGTTGA [3d929], 0.0929; that for “TATCACTTGTCGAAGCACTTTGGTGGGTTGA [3d1930]”, 0.0884.
ATCACTTGTCGTAAGACCTTTGATGGGTTGA [3d240] came in with a fraction ligated of 0.311.
In turn, “TATCATTGTCGTAAGACACTTTGAGGGTTGA [3d1278]” yielded a fraction ligated of 0.00985.
